From patent US20230235012A1 (ALPINE IMMUNE SCIENCES, published 2023)

Assays:
[1] = target: human PD-L1, full-length, expressed on transfected cells (human) (UniProt Q9NZQ7); experiment: flow cytometry, transfected cells
[2] = target: human PD-L1 (human) (UniProt Q9NZQ7); experiment: flow cytometry, PD-L1-transfected cells
[3] = target: human CD28, full-length, expressed on transfected cells (human) (UniProt P10747); experiment: flow cytometry, transfected cells
[4] = target: human CD28, full length, expressed on cells (human, UniProt P10747 19-220); experiment: flow cytometry of human T cells from blood of treated GVHD mice
[5] = target: T1, human CTLA-4 (human, UniProt P16410 36-223); experiment: flow cytometry, transfected cells
T1 construct: whole, on cells

[6] = target: T1, human CTLA-4; experiment: flow cytometry, transfected cells; protein from 293
[7] = target: T2, human ICOS, full length, expressed on cells (human, UniProt Q9Y6W8 21-199); experiment: flow cytometry on CHO cells transduced for surface expression of full-length human ICOS; Fc protein 32 pM to 100 nM, PE anti-human IgG, MFI
T2 sequence: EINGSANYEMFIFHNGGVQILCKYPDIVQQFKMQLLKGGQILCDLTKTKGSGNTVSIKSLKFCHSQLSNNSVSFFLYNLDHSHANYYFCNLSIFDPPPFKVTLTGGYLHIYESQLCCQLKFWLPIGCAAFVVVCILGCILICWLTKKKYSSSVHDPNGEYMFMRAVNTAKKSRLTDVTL

Chain of human PD-L1 (human) (Q9NZQ7 19-290): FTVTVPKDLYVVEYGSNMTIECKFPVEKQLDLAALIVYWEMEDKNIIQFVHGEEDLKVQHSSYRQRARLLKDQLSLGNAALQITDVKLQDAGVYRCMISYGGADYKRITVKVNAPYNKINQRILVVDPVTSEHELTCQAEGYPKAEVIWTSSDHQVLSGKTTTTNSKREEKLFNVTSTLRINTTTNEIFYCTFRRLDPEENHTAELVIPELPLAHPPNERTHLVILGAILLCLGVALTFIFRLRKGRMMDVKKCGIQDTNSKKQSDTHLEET
T1 sequence (P16410 36-223): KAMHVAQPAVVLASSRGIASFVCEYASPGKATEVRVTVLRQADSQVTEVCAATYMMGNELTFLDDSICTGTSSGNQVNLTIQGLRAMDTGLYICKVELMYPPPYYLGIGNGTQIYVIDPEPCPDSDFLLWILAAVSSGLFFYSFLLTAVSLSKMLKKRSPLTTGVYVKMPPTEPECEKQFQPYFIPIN
Chain of human PD-L1, full-length, expressed on transfected cells (human) (Q9NZQ7 19-290): as the sequence (Q9NZQ7 19-290) above

Q: How did the MFI [1] turn out when “stacked Fc fusion: Domain 1 CD80 WT / Domain 2 ICOSL WT / Fc” was run?
A: The MFI was 2660 MFI.

Q: “stack CD80 WT IgV / ICOSL WT IgV / Fc (Fc fusion)” was tested. Which MFI [2] did it give?
A: Its MFI is 1230 MFI.

Q: Which MFI [3] does the source give for “stacked Fc fusion: Domain 1 ICOSL WT / Domain 2 NKp30 WT / Fc” here?
A: Its MFI is 7920 MFI.

Q: “stacked Fc fusion: Domain 1 NKp30 WT / Domain 2 ICOSL WT / Fc” was tested. Which MFI [3] did it give?
A: Its MFI is 6340 MFI.

Q: Which MFI [2] does the source give for “stack ICOSL WT IgV / CD80 WT IgV / Fc (Fc fusion)” here?
A: Its MFI is 3000 MFI.

B1: variant ICOSL IgV-Fc (N52H/N57Y/Q100R) (Fc fusion)
chain: DTQEKEVRAMVGSDVELSCACPEGSRFDLNDVYVYWQTSESKTVVTYHIPQHSSLEYVDSRYRNRALMSPAGMLRGDFSLRLFNVTPQDEQKFHCLVLSRSLGFQEVLSVEVTLHVAANFSVEPKSSDKTHTCPPCPAPEAEGAPSVFLFPPKPKDTLMISRTPEVTCVVVDVSHEDPEVKFNWYVDGVEVHNAKTKPREEQYNSTYRVVSVLTVLHQDWLNGKEYKCKVSNKALPAPIEKTISKAKGQPREPQVYTLPPSRDELTKNQVSLTCLVKGFYPSDIAVEWESNGQPENNYKTTPPVLDSDGSFFLYSKLTVDKSRWQQGNVFSCSVMHEALHNHYTQKSLSLSPG
Q: Does B1 bind [4]?
A: Result: binds

B2: Wildtype ICOSL ECD (control of Tables 30C and 30D) (Fc fusion, not shown: a dimerising Fc or GST)
chain: DTQEKEVRAMVGSDVELSCACPEGSRFDLNDVYVYWQTSESKTVVTYHIPQNSSLENVDSRYRNRALMSPAGMLRGDFSLRLFNVTPQDEQKFHCLVLSQSLGFQEVLSVEVTLHVAANFSVPVVSAPHSPSQDELTFTCTSINGYPRPNVYWINKTDNSLLDQALQNDTVFLNMRGLYDVVSVLRIARTPSVNIGCCIENVLLQQNLTVGSQTGNDIGERDKITENPVSTGEKNAAT
Q: What does the source list for B2?
A: MFI [5]: 7580 MFI; MFI [6]: 12100 MFI

B3: ICOSL (N52L/N57H/Q100R) (Fc fusion, not shown: a dimerising Fc or GST; small tags and cut ends)
chain: DTQEKEVRAMVGSDVELSCACPEGSRFDLNDVYVYWQTSESKTVVTYHIPQLSSLEHVDSRYRNRALMSPAGMLRGDFSLRLFNVTPQDEQKFHCLVLSRSLGFQEVLSVEVTLHVAANFSV
notes: also called ICOSL H3447; parental ICOSL only protein
Q: For B3, which “EC50 (read off the curve)” value [7] is on record?
A: Its value is about 0.4 nM.
